Experimental data as given in US7285654 (SIGNAL PHARMACEUTICALS, dated 2007).
Square brackets hold non-standard residues; d marks the D form. Ends that are not written are not given here. pS = N[C@@H](COP(=O)(O)O)C(=O)O

Molecular target: IKK signalsome (stimulus-inducible IκB kinase complex) immunopurified from TNFα-stimulated HeLa cells (human)
Experiment: product inhibition of immunopurified IKK signalsome; 32P incorporation into GST-IκBα (1-54), TCA precipitation, Dixon analysis

IKK signalsome (stimulus-inducible IκB kinase complex) immunopurified from TNFα-stimulated HeLa cells (human), sequence (chain, as listed by the source, chain 1 of 3): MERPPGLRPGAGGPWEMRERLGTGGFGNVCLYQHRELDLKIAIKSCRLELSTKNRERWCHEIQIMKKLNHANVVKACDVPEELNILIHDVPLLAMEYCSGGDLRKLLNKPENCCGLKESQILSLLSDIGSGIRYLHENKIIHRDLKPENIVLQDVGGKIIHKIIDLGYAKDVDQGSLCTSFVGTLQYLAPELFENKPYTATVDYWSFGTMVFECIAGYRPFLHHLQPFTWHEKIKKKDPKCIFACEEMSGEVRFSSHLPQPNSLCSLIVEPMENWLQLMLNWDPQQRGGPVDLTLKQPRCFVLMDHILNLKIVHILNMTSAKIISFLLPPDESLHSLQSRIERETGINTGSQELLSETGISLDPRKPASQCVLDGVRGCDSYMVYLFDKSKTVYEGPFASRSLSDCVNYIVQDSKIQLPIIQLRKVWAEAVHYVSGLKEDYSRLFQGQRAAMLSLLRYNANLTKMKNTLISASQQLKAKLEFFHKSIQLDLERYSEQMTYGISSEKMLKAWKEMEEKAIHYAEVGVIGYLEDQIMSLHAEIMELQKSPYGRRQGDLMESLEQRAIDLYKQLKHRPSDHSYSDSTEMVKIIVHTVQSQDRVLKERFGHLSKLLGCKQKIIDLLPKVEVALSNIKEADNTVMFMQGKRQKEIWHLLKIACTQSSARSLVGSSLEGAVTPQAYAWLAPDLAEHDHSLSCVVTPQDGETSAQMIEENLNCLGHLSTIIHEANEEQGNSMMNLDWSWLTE
IKK signalsome (stimulus-inducible IκB kinase complex) immunopurified from TNFα-stimulated HeLa cells (human), sequence (chain, as listed by the source, chain 2 of 3): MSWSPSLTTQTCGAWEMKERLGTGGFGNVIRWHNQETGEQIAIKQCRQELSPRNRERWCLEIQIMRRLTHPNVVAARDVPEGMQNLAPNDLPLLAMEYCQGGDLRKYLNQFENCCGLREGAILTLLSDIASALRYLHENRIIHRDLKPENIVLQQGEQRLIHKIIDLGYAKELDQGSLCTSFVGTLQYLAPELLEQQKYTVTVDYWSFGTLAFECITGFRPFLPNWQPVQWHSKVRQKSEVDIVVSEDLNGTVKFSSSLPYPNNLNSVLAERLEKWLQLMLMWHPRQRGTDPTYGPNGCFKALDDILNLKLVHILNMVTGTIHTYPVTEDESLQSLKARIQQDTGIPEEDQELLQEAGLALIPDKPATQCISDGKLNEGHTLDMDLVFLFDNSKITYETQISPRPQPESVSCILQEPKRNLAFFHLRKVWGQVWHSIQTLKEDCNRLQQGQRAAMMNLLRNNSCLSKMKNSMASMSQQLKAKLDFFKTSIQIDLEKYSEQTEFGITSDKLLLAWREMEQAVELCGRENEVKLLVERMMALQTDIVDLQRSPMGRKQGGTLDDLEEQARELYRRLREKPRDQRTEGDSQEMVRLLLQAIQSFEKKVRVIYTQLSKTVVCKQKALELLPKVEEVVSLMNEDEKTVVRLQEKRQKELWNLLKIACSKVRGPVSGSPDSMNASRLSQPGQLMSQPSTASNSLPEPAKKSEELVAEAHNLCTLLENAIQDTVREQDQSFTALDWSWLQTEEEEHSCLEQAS
IKK signalsome (stimulus-inducible IκB kinase complex) immunopurified from TNFα-stimulated HeLa cells (human), sequence (chain, as listed by the source, chain 3 of 3): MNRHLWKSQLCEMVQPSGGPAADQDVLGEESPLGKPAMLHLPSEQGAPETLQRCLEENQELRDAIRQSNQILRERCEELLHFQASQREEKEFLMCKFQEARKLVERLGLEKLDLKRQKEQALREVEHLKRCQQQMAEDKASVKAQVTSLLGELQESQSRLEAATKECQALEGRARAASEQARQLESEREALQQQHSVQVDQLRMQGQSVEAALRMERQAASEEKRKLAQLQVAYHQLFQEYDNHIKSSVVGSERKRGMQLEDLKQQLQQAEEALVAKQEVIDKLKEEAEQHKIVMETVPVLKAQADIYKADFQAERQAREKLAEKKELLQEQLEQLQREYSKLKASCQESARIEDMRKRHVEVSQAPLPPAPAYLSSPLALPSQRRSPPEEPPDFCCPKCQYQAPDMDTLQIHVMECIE

- Ki: 14 µM
B1: IκBα (21-41) peptide P32,36 (doubly phosphorylated IκBα peptide bearing phosphoserines at both positions 32 and 36) (peptide)
peptide: CKKERLLDDRHD[pS]GLD[pS]MKDEE
notes: The phosphorylated forms are described as the same peptide chemically phosphorylated; also called P32, 36 peptide
